Experimental data published in paper PMC2737085.

Molecular target: RPA heterotrimer with the phosphomimetic Asp8-RPA2 subunit (UniProt P27694)
Test: co-IP

- percent decrease in binding against RPA: 88%
Substance: MRE11/RAD50/NBS1 (MRN) complex (from UniProt P49959 1-708; Q92878 1-1312; O60934 1-754)
